Target: rnf8_human RNF8 (UniProt O76064)
Sequence of UniProt O76064 (O76064 whole entry): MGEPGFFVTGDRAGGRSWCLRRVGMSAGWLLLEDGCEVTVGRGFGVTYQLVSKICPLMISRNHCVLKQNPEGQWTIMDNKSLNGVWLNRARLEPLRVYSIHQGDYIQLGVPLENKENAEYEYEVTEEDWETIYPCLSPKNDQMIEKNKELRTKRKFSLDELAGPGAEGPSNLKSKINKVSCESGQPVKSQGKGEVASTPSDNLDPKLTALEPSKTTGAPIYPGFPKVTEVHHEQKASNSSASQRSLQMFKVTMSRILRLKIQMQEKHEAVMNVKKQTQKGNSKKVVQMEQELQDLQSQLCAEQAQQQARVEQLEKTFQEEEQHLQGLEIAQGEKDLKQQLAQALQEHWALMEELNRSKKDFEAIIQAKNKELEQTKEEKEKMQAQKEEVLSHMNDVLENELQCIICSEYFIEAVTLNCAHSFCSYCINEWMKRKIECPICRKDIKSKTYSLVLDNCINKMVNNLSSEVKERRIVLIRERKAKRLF

effect of a mutation on the interaction: decreasing interaction
Substance: Mediator of DNA damage checkpoint protein 1 (Homo sapiens), Q14676 T699A;T719A;T752A

From IntAct's records for PubMed 18001824
